Measurements taken from the DeepSol protein solubility set.

Test: soluble on expression in E. coli; label from the status in PepcDB or PDB records

Sequence | soluble on expression in E. coli
MAHHHHHHSLENKGTNLTPEQALDRLEELYEQSVNALREAIADYVDNGTLPDPHARLNGLFVYPSLSVSWDGATPNPPKTRAFGRFTHPGCYTTTVTRPALFRAYLLEQLNLVYHDYGAHIAVEASHHEIPYPYVIDGSALTLDRSMSAGLTRHFPTTELAQIGDETADGLFHPGEFYPLSHFDARRVDFSLARLRHYTGTPVEHFQPFVLFTNYTRYVDEFVRWGCSQILDPDSPYIALSCAGGIWITAETEAPEEAISDLAWKKHQMPAWHLVTADGQGITLVNIGVGPSNAKTICDHLAVLRPDVWLMIGHCGGLRESQAIGDYVLAHAYLRDDHVLDAVLPPDIPIPSIAEVQRALYDATKAVSGMPGEEVKQRLRTGTVVTTDDRNWELRYSASALRFNLSRAVAIDMESATIAAQGYRFRVPYGTLLCVSDKPLHGEIKLPGQANRFYEGAISEHLQIGIRAIDLLRAEGDRLHSRKEG | soluble
MKVEELAESISSYAVGILKEEGIEELFPPQAEAVEKVFSGKNLLLAMPTAAGKTLLAEMAMVREAIKGGKSLYVVPLRALAGEKYESFKKWEKIGLRIGISTGDYESRDEHLGDCDIIVTTSEKADSLIRNRASWIKAVSCLVVDEIHLLDSEKRGATLEILVTKMRRMNKALRVIGLSATAPNVTEIAEWLDADYYVSDWRPVPLVEGVLCEGTLELFDGAFSTSRRVKFEELVEECVAENGGVLVFESTRRGAEKTAVKLSAITAKYVENEGLEKAILEENEGEMSRKLAECVRKGAAFHHAGLLNGQRRVVEDAFRRGNIKVVVATPTLAAGVNLPARRVIVRSLYRFDGYSKRIKVSEYKQMAGRAGRPGMDERGEAIIIVGKRDREIAVKRYIFGEPERITSKLGVETHLRFHSLSIICDGYAKTLEELEDFFADTFFFKQNEISLSYELERVVRQLENWGMVVEAAHLAPTKLGSLVSRLYIDPLTGFIFHDVLSRMELSDIGALHLICRTPDMERLTVRKTDSWVEEEAFRLRKELSYYPSDFSVEYDWFLSEVKTALCLKDWIEEKDEDEICAKYGIAPGDLRRIVETAEWLSNAMNRIAEEVGNTSVSGLTERIKHGVKEELLELVRIRHIGRVRARKLYNAGIRNAEDIVRHREKVASLIGRGIAERVVEGISVKSLNPESAAALEHHHHHH | soluble
MTNLETYFKNSQPLNEYIDGMKTNQDTVLSIYQSFELPEDDSRIKKIKEMNYSKVLVITEDWCGDAMMNLPILKHISEALNLEVRVFHRDDDTKLIDQYLTNGKSRAIPIFVFLNDQFEQETVWGPRANEVQKFVTDVRADKLPSKDHPDYADLEKETHLVISNRYKTDASFWKAVYNSILNKLENK | not soluble
ASVRVVQKNLVFVVGLSQRLADPEVLKRPEYFGKFGKIHKVVINNSTSYAGSQGPSASAYVTYIRSEDALRAIQCVNNVVVDGRTLKASLGTTKYCSY | soluble
MSQFAVIIFGDQAKANEASRVLTELQADNSLVLFSQAVIAKDLAGTVSLMAPASGGAVGSAVSGLASRLIGVPVGGHGDLSDAGVLDSFCQEAADALKPGATAIVAEISEDRLGPLNTQMHALGGQVLRSCNSDSEGDEIAKQTARQIANIERLNAEYVRAPQDADKPGETPVDAVTLAPDERASNQSIVKANAEARSAKLSQACGLTKDALG | not soluble
MKRRDILKGGLAAGALALLPRGHTQGALQNQPSLGRRYRNLIVFVYDGFSWEDYAIAQAYARRRQGRVLALERLLARYPNGLINTYSLTSYVTESSAAGNAFSCGVKTVNGGLAIHADGTPLKPFFAAAKEAGKAVGLVTTTTVTHATPASFVISNPDRNAEERIAEQYLEFGAEVYLGGGDRFFNPARRKDGKDLYAAFAAKGYGVVRTPEELVRSNATRLLGVFADGHVPYEIDRRFQGLGVPSLKEMVQAALPRLAAHRGGFVLQVEAGRIDHANHLNDAGATLWDVLAADEVLELLTAFVDRNPDTLLIVVSDHATGVGGLYGAGRSYLESSQGVDLLEPQRASFEHMLRVLGQAPEASQVKEAFRAMKGVDLEDAEAERVVRAIREKVYWPEGVRQGVQPANTMAWAMVQRDAQKPDRPNIGWSSGQHTASPVMLLLYGQGLRFVNLGLVDNTHVFRLMGEALGLRYQNPVMSEEEALEILKARPQGMRHPEDVWA | soluble
MIRLSEQSPLGTGRHRKCYAHPEDAQRCIKIVYHRGDGGDKEIRRELKYYAHLGRRLKDWSGIPRYHGTVETDCGTGYVYDVIADFDGKPSITLTEFAEQCRYEEDIAQLRQLLKQLKRYLQDNRIVTMSLKPQNILCHRISESEVIPVVCDNIGESTLIPLATWSKWCCLRKQERLWKRFIAQPALAIALQKDLQPRESKTLALTSREALEHHHHHH | not soluble
MNKLRRQLSMNSLLIDTSNQPLSVALMQNDEVLAEITTDSKQNHSVQLMPAISQLFEQSKIAKQQLDAIIVAEGPGSYTGLRIGVTVAKTLAYALDVKLYGVSSLKALAATIDHTDKLLVPVFDARRQAVYTGIFQWQNGQLVTILEDQYMSIEALRAFLEDLNQPFIYIGKDTIKLQDELQGEVIAQLPNASVMYQLIDKPTDVHTFTPKYHKLAEAERNWINSQKNN | not soluble
MNALARRAAGLLLGTLCLPLAAFAADVQPTHEFILDNGLKVVVREDHRAPVVVSQIWYKVGSSYETPGQTGLSHALEHMMFKGSAKVGPGEASRILRDLGADENAFTSDDYTAYYQVLARDRLPVALELEADRLASLRLPADEFSREIEVIKEERRLRTDDQPNAKAFELFRAMAYPASGYHTPTIGWMADLERMKVEELRHWYESWYAPNNATLVVVGDVTADEVKGLAQKYFGNIPKRA | not soluble
MHLSRCRKCGRVMKGERIDPYRVKLTCSCGFSDFRTMTEKVKTVNPFFQKGGFSPLLESERGKMVLTMQRANREHLEIISLEEISMLVSSDFDLPEVLQHVTAKVATQLKVSVCNIYLREGDEVVLAATHGFDPAFIGKIRIKIGDGITGSVARDGQYISLSRASQDPRYRYFPELQEEKYNSMLSFPIGDKKEVYGVINLNTTSIRSFHEDEIYFVSIIANLILTAIKLRQQVASSRKAAEASA | not soluble
MGSDKIHHHHHHMLLYIHGFNSSPFSDKAVITARYMAEYHPSLTFHQPQLPNTPKAAMALLQSYVEAAQQANEPLNYIGSSLGGYFASYLAERYGGRAVLVNPAVKPFELFDEFMGPQFNPYTQEHYQVLPEHKREVAEFNTPVIRNPERFLVLLQTGDEVLDYREALHKYHHCQLRIESGGDHSFVGYERYLQTVSQFLHLP | not soluble
MSLKLPVPSPMRLAVTHEGRSIIYIPSPEYAVASGRLEPAWLEVFYNPAMEFNRDVSVVAASALRRTGLLTRSGVAFDAHAGVGVRGVRYAVEAGYVKVIMNDINPKASMLAALNARANGLEPGSYMIFNKESNSLMFHLSRERPTPVSLIDIDPYGSPAPFVDAALALSGKGTVVAMTATDLAVLEGGKARAAVRRYMLRSVSKTPVSKETGLRVLLGYVARVAAAHDKAVKPLLAYYADHYYRVYVAVERGARRSDSMLEENLGRLVYCPETGVALALSYAEDPASACGGSYVVAADPAWIGSLGDQAFLEAMLNIAVEAVWLGTRPRVEKLLNTLHGEAPLSPRSIYVSLTSVASKARVNTPKKSKVVELLRSMGYRAVATHFSGEGVRTDAPWGEVLEAVVKLGSSGEGHHHHHH | not soluble
SLAGVSYAAPWWVSLLHRLPHFDLRWEATSSQFRPEDADYQQAASAYGNGETSDGIHRATYSLRHANRTVAGVQDRVWDTAAALNRTAEPNLQSLERQLAGRQEPLRAVQRLQTGAARSSKGSAACSIPHTWQQKRGPDDDGEEETAPGPR | soluble
MGSDKIHHHHHHMDDIKSQIKELRLGAKIRKLRQDRRLTLQELSELSGLSKPLLSQIENDQVTPPIATLLKISKGLKVGIHYFFEEEEDQQKVVLTRAAQQQPTRRRSGNDAPHGYIYRSLAPGIRHKPMEPFLVEFELTDWSDSFFYRHDGFEFIYLLDGELEFHYGSDVMRLLPGDSIYYDSSEPHGYVSVGEERARAVAVLYTRD | not soluble
MRITDLLSKDVMIMSLQATTKEAAIDEMIASLKSNGKINDEVLFKEAIMNREAQSSTGVGEGIAMPHAKTKAVNEPTVVFAKSEKGLDYNSLDGQPAHLFFMIAAPDGANATHLETLAALSRLLVHPAFVQSLKDAKTPDDVITLFNNEQGDAEE | not soluble
MSLSTMGPLGGISVIFDLDGTLVDSEPHYYEAGRRTLAEYGVPDFSWADHEAYVGISTQETVADWKRRYGLRATVEELLAVKNRHYLGLARTSARAYPEMRKFVELLAGEGVPMAVASGSSPEAIAAILARTGLDAHLRTVVSADEVARGKPAPDVFLEAARRLGTEPARCVVLEDAAPGAAAAHAAGMRCIAIPYVSGQADAPEFATAELLVRGGQEEFTARAAHDWLRTDGNATRETEGHHHHHH | soluble
MANFNVPKLGVFPVAAVFDIDNVPEDSSATGSRWLPSIYQGGNYWGGGPQALHAQVSNFDSSNRLPYNPRTENNPAGNCAFAFNPFGQYISNISSAQSVHRRIYGIDLNDEPLFSPNAASITNGGNPTMSQDTGYHNIGPINTAYKAEIFRPVNPLPMSDTAPDPETLEPGQTEPLIKSDGVYSNSGIASFIFDRPVTEPNPNWPPLPPPVIPIIYPTPALGIGAAAAYGFGYQVTVYRWEEIPVEFIADPETCPAQPTTDKVIIRTTDLNPEGSPCAYEAGIILVRQTSNPMNAVAGRLVPYVEDIAVDIFLTGKFFTLNPPLRITNNYFADDEVKENTVTIGNYTTTLSSAYYAVYKTDGYGGATCFIASGGAGISALVQLQDNSVLDVLYYSLPLSLGGSKAAIDEWVANNCGLFPMSGGLDKTTLLEIPRRQLEAINPQDGPGQYDLFILDDSGAYASFSSFIGYPEAAYYVAGAATFMDVENPDEIIFILRNGAGWYACEIGDALKIADDEFDSVDYFAYRGGVMFIGSARYTEGGDPLPIKYRAIIPGLPRGRLPRVVLEYQAVGMSFIPCQTHCLGKGGIISKV | not soluble
MVRVYIGRFPNRASDRDAEHFFCDYGKLPDAIMKNVFGVGCKDFQDQSDADDIICDEQTRILLVEKLKNAKEYPTINHD | not soluble
MSSFVPNKEQTRTVLIFCFHLKKTAAESHRMLVEAFGEQVPTVKTCERWFQRFKSGDFDVDDKEHGKPPKRYEDAELQALLDEDDAQTQKQLAEQLEVSQQAVSNRLREMGKIQKVGRWVPHELNERQMERRKNTCEILLSRYKRKSFLHRIVTGDEKWIFFVNPKRKKSYVDPGQPATSTARPNRFGKKTMLCVWWDQSGVIYYELLKPGETVNAARYQQQLINLNRALQRKRPEYQKRQHRVIFLHDNAPSHTARAVRDTLETLNWEVLPHAAYSPDLAPSDYHLFASMGHALAEQRFDSYESVKKWLDEWFAAKDDEFYWRGIHKLPERWEKCVASDGKYFE | soluble
MGSDKIHHHHHHMNEIRVSSWPALHEVLYGESWNPRLGRFRSPFVFRGQSRAEAKLTTTLQRLSGETREIERHLLRNFRKYAYRNGMDRDLPWYWLAVGQHHGLPTRLLDWTTSPLVALHFATAEEDHYSQDGVVWMVNFIRTNERLPAPLKALLEQEGADVFTVDMLTAFSRAHRSQQMPELGQQPSFDLSWLEDLEREAEHPFLLFLEPPSIDERIVQQAALFSLLSDPEAALDDWLVQHPGTAHKVILPADLKWEIRDKLDQSNITERTLFPGLGGLSQALRRYYRVGRDPSQQQGATAEEQAQEMERQN | not soluble
MNDTLPGRISRERRGHLLLLGLDRVAKRNAFDLPMLDDLVAALGEYEADDQLRCALLFAHGEHFTAGLDLANVGETFRQGWKLPEGAVDPWGTFGGRRPSKPLVVAVQGYCYTIGIELMLAADINLCASNARFAQLEVQRGILPFGGATLRMHQVAGWGNAMRWLLTGDEFDAHEAYRLGLVQEVTAPEDLLDHAIALAERVAAQAPLGVRATLGSARQALLEGEAVAAAALPEAARRLLDSEDAKEG | not soluble
